Earlier results in article PMC5035964.
pKd: −log10 of the molar value.

Assays:
CD46 (Homo sapiens) = CD46 (Homo sapiens) (UniProt P15529)
SLAMF1 (Homo sapiens) = SLAMF1 (Homo sapiens) (UniProt Q13291)
Nectin-4 (Homo sapiens) = Nectin-4 (Homo sapiens) (UniProt Q96NY8)
UniProt Q96NY8, sequence (Q96NY8 32-510): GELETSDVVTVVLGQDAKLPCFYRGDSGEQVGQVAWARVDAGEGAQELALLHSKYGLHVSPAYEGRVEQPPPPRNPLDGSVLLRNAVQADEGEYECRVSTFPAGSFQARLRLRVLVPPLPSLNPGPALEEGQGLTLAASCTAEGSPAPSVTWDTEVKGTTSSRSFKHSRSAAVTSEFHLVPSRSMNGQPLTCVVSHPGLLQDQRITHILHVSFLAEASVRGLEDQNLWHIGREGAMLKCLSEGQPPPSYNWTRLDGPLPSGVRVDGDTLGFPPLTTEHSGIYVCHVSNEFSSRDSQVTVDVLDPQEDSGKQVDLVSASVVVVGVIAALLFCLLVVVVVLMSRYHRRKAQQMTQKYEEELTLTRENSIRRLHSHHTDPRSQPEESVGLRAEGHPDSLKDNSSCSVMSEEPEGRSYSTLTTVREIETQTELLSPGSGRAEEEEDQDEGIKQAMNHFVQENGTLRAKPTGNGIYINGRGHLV

UniProt Q13291, sequence (Q13291 21-335): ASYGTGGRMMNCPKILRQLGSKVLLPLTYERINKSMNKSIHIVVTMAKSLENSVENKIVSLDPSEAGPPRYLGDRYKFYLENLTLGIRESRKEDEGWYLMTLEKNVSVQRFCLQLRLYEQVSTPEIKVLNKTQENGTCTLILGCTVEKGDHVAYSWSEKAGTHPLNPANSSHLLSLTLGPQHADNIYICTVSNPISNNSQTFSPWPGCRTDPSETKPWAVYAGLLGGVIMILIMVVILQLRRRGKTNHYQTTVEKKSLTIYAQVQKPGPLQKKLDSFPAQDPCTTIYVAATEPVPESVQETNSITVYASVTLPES
UniProt P15529, sequence (P15529 35-392): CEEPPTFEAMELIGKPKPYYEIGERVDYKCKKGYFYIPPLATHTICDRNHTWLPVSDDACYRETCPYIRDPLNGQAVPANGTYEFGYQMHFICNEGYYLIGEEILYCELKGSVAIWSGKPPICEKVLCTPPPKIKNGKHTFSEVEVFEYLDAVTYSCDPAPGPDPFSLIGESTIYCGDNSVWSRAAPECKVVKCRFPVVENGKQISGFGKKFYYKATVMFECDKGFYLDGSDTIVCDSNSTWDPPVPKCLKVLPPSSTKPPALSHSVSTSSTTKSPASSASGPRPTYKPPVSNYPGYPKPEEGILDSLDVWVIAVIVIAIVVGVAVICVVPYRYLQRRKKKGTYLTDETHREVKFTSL

Measles virus hemagglutinin (H), Edmonston (from UniProt P08362)
pKd (CD46 (Homo sapiens)): 7.10

Measles virus hemagglutinin (H) (from UniProt P08362)
pKd (SLAMF1 (Homo sapiens)): 7.10
pKd (Nectin-4 (Homo sapiens)): 7.70
